Measurements taken from article PMC6736649.

Experiments:
Experiment in all cases: ITC
[1] = biological target: FEZ1_(92–198 182EA) (human) (UniProt Q99689)
[2] = biological target: FEZ1_(178–188) (human)
[3] = biological target: FEZ1_(92–198) (human) (UniProt Q99689)

Disulfide-crosslinked CA (A14C/E45C) hexamer (complex)
stoichiometry N (CA hexamer to FEZ1) [1]: 1.6 | Kd [2]: 180 nM | stoichiometry N (CA hexamer to FEZ1 (178–188)) [2]: 1 | Kd [3]: 300 nM | stoichiometry N (CA hexamer to FEZ1) [3]: 1.3
